Measured values published in publication PMC12827327.
pKd: −log10 of the molar value.

What was measured:
[1] = biological target: actin filament (F-actin) of chicken skeletal α-actin, pointed end (chicken) (UniProt P68139)
[2] = biological target: actin filament (F-actin) of chicken skeletal α-actin, pointed end (chicken) (UniProt P68139); remark: listed apart in the source
[3] = biological target: actin filament (F-actin) of chicken skeletal α-actin, pointed end (chicken) (UniProt P68139); remark: listed apart in the source
[4] = biological target: actin filament (F-actin) of chicken skeletal α-actin, pointed end (chicken) (UniProt P68139); assay: pyrene-actin pointed end elongation assay; apparent KD from inhibition of pointed end elongation; 0.8 µM F-actin seeds with 8 nM capping protein incubated with the titrated protein, 2 µM G-actin (8% pyrene-labeled) added; 10 mM HEPES pH 7.4, 50 mM KCl, 1 mM MgCl2, 1 mM EGTA; hyperbolic fit of normalized rates
[5] = biological target: actin filament (F-actin) of chicken skeletal α-actin, pointed end (chicken) (UniProt P68139); assay: pyrene-actin dilution-induced pointed end depolymerization assay; apparent KD from inhibition of pointed end depolymerization; 10 µM CP-capped pyrene F-actin (20% labeled) incubated with the protein 15 min on ice, diluted to 0.5 µM; hyperbolic fit of normalized rate constants

human SH3BGRL, sequence (O75368 whole entry): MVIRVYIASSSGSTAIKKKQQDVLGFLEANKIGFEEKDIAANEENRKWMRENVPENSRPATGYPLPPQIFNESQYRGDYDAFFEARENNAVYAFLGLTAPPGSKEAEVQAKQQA
human SH3BGRL-3, sequence (Q9H299 whole entry): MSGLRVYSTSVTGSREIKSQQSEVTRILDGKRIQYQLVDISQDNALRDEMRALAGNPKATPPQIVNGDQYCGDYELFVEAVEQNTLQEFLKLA
human tropomodulin-3, sequence (Q9NYL9 whole entry): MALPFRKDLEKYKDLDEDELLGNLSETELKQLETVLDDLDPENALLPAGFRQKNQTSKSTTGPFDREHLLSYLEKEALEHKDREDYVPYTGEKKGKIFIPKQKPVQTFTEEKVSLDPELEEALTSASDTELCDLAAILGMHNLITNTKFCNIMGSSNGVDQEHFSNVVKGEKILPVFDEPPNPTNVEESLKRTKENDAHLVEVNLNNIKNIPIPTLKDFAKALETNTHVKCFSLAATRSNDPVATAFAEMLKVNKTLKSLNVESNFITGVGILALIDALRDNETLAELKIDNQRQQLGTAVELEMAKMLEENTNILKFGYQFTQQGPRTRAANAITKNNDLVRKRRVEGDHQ

apparent rate of filament nucleation knuc, TIRFM, 1 µM ATTO-488 α-actin, 1-5 µM SH3BGRL (actin only: 5.1 × 10^-6) [1] [µm^-2 s^-1] | pyrene-actin bulk polymerization from 2 µM α-actin (5% pyrene-labeled), increasing SH3BGRL: increase of the net polymerization rate [2] [fold] | concentration required for half-maximal inhibition of pointed end depolymerization (K50%), CP-capped pyrene F-actin [3] [µM] | pKd [4] | apparent rate of filament nucleation knuc, TIRFM, 1 µM ATTO-488 α-actin, 0.5-5 µM SH3BGRL-3 (actin only: 5.1 × 10^-6) [1] [µm^-2 s^-1] | pyrene-actin bulk polymerization from 2 µM α-actin (5% pyrene-labeled), increasing SH3BGRL-3: increase of the net polymerization rate [2] [fold] | pKd [5] | Substance
2.22e-05 | < 3 | 7.6 | 7.07 |  |  |  | human SH3BGRL (from UniProt O75368 1-114) (natural protein)
 |  | 7.7 | 7.51 | 3.42e-05 | < 3 |  | human SH3BGRL-3 (from UniProt Q9H299 1-93) (natural protein)
 |  |  | 6.74 |  |  | 6.89 | human tropomodulin-3 (from UniProt Q9NYL9 1-352) (natural protein)
